According to patent US20080227698A1, “OLIGOPEPTIDES FOR TREATMENT OF OSTEOPOROSIS AND OTHER BONE DISEASES AND METHODS THEREOF” (Washington University, priority 2005, published 2008):
One block for each molecule: values may come before it.

What was measured:
Wnt signaling = assay: Wnt signalling TCF/LEF-Luc assay in HEK293 cells (Wnt3A conditioned medium plus Dkk1); type: cell-based; conditions: Wnt3A conditioned medium plus Dkk1 protein at 10 nM
Protocol: HEK293 cells were plated into six-well plates. For each well, […] of the TOP-[…] luciferase construct (Upstate Biotechnology) was cotransfected with 0.8 μg Mesd-expressing vector, 0.8 μg Mesd mutant-expressing vector, or empty vector. A β-galactosidase-expressing vector (Promega, Madison, Wis.) was included as an internal control for transfection efficiency. After 48 hours, cells were lysed and both luciferase and β-galactosidase activities were determined with enzyme assay kits (Promega). The luciferase activity was determined with a luminometer using the Dual Luciferase Assay system (Promega). Luciferase activity was normalized to the activity of the P-galactosidase.

LRP6 [1] = molecular target: T1, LRP6 (Homo sapiens, UniProt O75581); assay: ^125I-DKK1 binding to LRP6-transduced HT1080 cells; set-up: plasmid pCS-Myc-hLRP6 containing the full-length human LRP6 cDNA; HA; expressed in transfected cells; host or cells: human HT1080 cells, stably transduced (pLNCX2 retroviral vector); conditions: ^125I-DKK1 5 nM, 3 hours at 4° C.
T1 sequence (O75581 20-1613): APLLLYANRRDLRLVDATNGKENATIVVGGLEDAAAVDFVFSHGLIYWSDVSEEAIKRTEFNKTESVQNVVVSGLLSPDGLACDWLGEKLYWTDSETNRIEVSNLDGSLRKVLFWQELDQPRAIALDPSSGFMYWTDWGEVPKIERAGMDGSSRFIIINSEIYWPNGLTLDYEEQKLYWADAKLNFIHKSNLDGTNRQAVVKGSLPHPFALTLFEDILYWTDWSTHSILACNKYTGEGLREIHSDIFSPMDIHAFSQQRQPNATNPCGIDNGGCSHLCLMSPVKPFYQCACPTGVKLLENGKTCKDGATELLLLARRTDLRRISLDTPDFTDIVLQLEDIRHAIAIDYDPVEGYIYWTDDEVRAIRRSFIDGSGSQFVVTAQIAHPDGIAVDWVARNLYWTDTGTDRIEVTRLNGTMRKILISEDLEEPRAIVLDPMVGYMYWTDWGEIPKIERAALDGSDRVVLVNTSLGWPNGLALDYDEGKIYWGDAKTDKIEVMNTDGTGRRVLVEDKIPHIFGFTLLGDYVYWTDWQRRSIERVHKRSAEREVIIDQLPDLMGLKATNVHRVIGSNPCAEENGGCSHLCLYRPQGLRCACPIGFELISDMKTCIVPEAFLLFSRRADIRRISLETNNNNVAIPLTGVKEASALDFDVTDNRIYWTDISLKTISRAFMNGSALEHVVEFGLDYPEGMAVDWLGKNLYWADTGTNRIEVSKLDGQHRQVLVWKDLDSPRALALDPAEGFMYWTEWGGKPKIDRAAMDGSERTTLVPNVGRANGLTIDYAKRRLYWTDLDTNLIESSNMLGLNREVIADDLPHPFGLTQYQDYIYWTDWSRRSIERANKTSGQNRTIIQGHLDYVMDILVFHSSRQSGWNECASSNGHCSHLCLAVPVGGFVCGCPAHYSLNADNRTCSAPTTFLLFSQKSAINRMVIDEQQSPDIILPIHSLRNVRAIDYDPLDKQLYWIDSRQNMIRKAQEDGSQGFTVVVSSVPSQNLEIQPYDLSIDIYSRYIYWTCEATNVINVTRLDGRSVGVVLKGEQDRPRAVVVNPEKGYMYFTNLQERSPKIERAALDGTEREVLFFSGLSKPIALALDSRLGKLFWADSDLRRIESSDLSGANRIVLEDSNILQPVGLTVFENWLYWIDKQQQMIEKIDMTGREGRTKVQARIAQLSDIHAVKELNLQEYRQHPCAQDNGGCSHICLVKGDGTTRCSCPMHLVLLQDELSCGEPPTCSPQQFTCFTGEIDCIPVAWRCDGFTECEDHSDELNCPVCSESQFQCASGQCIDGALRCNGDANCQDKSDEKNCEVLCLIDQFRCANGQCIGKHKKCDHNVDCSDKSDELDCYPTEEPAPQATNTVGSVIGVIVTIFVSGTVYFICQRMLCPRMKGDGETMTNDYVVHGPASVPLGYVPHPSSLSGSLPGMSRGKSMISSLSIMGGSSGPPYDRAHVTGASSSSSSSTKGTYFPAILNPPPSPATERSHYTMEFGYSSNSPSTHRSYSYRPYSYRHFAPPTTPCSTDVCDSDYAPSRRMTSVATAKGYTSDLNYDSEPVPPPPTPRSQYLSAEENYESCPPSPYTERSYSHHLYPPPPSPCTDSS
Protocol: (§1) Cells (2×10^5) were seeded into 12-well dishes 1 day prior to assay. Ligand-binding buffer (minimal Eagle's medium containing 0.6% BSA with a different concentration of radioligand, 0.6 ml/well) was added to cell monolayers, in the absence or the presence of 500 nM unlabeled RAP or 500 nM unlabeled Mesd, followed with incubation for 0-4 hours at 4° C. Thereafter, overlying buffer containing unbound ligand was removed, and cell monolayers were washed and lysed in low-SDS lysis buffer (62.5 mM Tris-HCl pH 6.8, 0.2% SDS, 10% v/glycerol) and counted.
RAP is a receptor antagonist for members of the LDLR family, and is able to inhibit the binding of most known ligands of the LDLR family members. […] In these experiments, Serum-free conditioned medium was harvested from HEK293 cells transiently transfected with cDNA for human Myc-DKK1 and allowed to bind to LRP6-transduced HT1080 cells (B,C) and control cells (A) in the absence (A,B) or presence (C) of 1 μM Mesd. Cell-surface-bound Myc-tagged DKK proteins were fixed and detected by immunofluorescence staining with anti-Myc antibody. […] Binding of 125I-DKK1 (5 nM) to LRP6-transduced HT1080 cells or the control cells was carried out for 3 hours at 4° C. in the absence (total) or presence of 500 nM RAP or 500 nM Mesd. […] LRP6-mediated 125I-Mesd (5 nM) degradation was carried out for 4 hours at 37° C. in the absence or presence of 500 nM RAP or 500 nM Mesd. Values are the means of triple determinations with the s.d. indicated by error bars. Bar, 10 μm.

LRP6 [2] = molecular target: T1, LRP6; assay: LRP6-mediated ^125I-DKK1 degradation in LRP6-transduced HT1080 cells; type: cell-based; set-up: plasmid pCS-Myc-hLRP6 containing the full-length human LRP6 cDNA; HA; expressed in transfected cells; host or cells: human HT1080 cells, stably transduced (pLNCX2 retroviral vector); conditions: 5 nM, 4 hours at 37° C.
Protocol: Ligand degradation was performed using the methods as described (Li, Y., J. Biol. Chem. 275: 17187-17194, 2000). Briefly, 2×10^5 cells were seeded into 12-well dishes 1 day prior to assay. Pre-warmed assay buffer (minimal Eagle's medium containing 0.6% BSA with radioligand, 0.6 ml/well) was added to cell monolayers in the absence or the presence of unlabeled 500 nM RAP or 500 nM Mesd, followed by incubation for 4 hours at 37° C. Thereafter, the medium overlying the cell monolayers was removed and proteins were precipitated by addition of BSA to 10 mg/ml and trichloroacetic acid to 20%. […] After each time point, the plates were quickly placed on ice and the assay buffer was replaced with cold stop/strip solution. ^125I-anti-HA IgG that remained on the cell surface was stripped by incubation of cell monolayers with cold stop/strip solution for a total of 20 minutes (0.75 ml for 10 minutes, twice) and counted. Cell monolayers were then solubilized with low-SDS lysis buffer and counted. […] The fraction of internalized ^125I-anti-HA IgG after each time point was calculated and plotted.
RAP is a receptor antagonist for members of the LDLR family, and is able to inhibit the binding of most known ligands of the LDLR family members. […] Cell-surface-bound Myc-tagged DKK proteins were fixed and detected by immunofluorescence staining with anti-Myc antibody. […]

LRP6 [3] = molecular target: T1, LRP6; assay: ^125I-Mesd cell surface ligand binding to LRP6-transduced HT1080 cells; set-up: plasmid pCS-Myc-hLRP6 containing the full-length human LRP6 cDNA; HA; expressed in transfected cells; host or cells: human HT1080 cells, stably transduced (pLNCX2 retroviral vector); conditions: for Binding of Mesd truncation mutants to cell surface LRP6: LRP6-transduced HT1080 cells, 5 nM ^125I-labelled, 3 hours at 4° C. for Mesd (150-195)
Protocol: To examine whether Mesd binds with high affinity to […] at the cell surface, cell surface ligand binding experiments were performed with cells stably transduced with LRP6 cDNA. Human HT1080 cells, which express undetectable levels of LRP6, were transduced with a viral vector alone (pLNCX2) or with vector containing LRP6 cDNA (Li, Y., Oncogene 23: 9129-9135, 2004) and used for ^125I-Mesd binding (FIG. 1A). ^125I-Mesd (5 nM) reached maximal binding after 2 hours incubation at 4° C. with LRP6-expressing HT1080 cells (FIG. 1A).
(A) Time course of ^125I-Mesd (5 nM) binding to LRP6-transduced HT1080 cells and the control cells. Assay was carried out for the indicated periods at 4° C. in the absence (total) or presence of 500 nM Mesd (non-specific). (B) Saturation binding of ^125I-Mesd to LRP6-transduced HT1080 cells and the control cells. Assay was carried out at indicated concentrations for 3 hours at 4° C. in the absence (total) or presence (non-specific) of 500 nM Mesd. (C) Scatchard plots of data in B. All values are the average of triple determinations with the s.d. indicated by error bars.
as §1

LRP6 [4] = molecular target: T1, LRP6; assay: LRP6-mediated ^125I-Mesd degradation in LRP6-transduced HT1080 cells; type: cell-based; set-up: plasmid pCS-Myc-hLRP6 containing the full-length human LRP6 cDNA; HA; expressed in transfected cells; host or cells: human HT1080 cells, stably transduced (pLNCX2 retroviral vector); conditions: 500 nM unlabeled competitor, ^125I-Mesd 5 nM, 4 hours at 37° C.
Protocol: Ligand degradation was performed using the methods as described (Li, Y., J. Biol. Chem. 275: 17187-17194, 2000). Briefly, 2×10^5 cells were seeded into 12-well dishes 1 day prior to assay. Pre-warmed assay buffer (minimal Eagle's medium containing 0.6% BSA with radioligand, 0.6 ml/well) was added to cell monolayers in the absence or the presence of unlabeled 500 nM RAP or 500 nM Mesd, followed by incubation for 4 hours at 37° C. Thereafter, the medium overlying the cell monolayers was removed and proteins were precipitated by addition of BSA to 10 mg/ml and trichloroacetic acid to 20%. Degradation of radioligand was defined as the appearance of radioactive fragments in the overlying medium that were soluble in 20% trichloroacetic acid. Kinetic analysis of endocytosis LRP6-transduced HT1080 cells were plated in 12-well plates at a density of 2×10^5 cells/well and used after overnight culture. Cells were rinsed twice in ice-cold assay buffer (minimal Eagle's medium containing 0.6% BSA), and ^125I-anti-HA IgG was added at 1 nM final concentration in cold assay buffer (0.5 ml/well). The binding of ^125Ianti- HA IgG was carried out at 4° C. for 90 minutes with gentle rocking. Unbound ^125I-anti-HA IgG was removed by washing cell monolayers three times with cold assay buffer. Ice-cold stop/strip solution (0.2 M acetic acid, pH 2.6, 0.1 M NaCl) was added to one set of plates without warming up and kept on ice. The remaining plates were then placed in a 37° C. water bath and 0.5 ml assay buffer prewarmed to 37° C. was quickly added to cell monolayers to initiate internalization. After each time point, the plates were quickly placed on ice and the assay buffer was replaced with cold stop/strip solution. ^125I-anti-HA IgG that remained on the cell surface was stripped by incubation of cell monolayers with cold stop/strip solution for a total of 20 minutes (0.75 ml for 10 minutes, twice) and counted. Cell monolayers were then solubilized with low-SDS lysis buffer and counted. […] The fraction of internalized ^125I-anti-HA IgG after each time point was calculated and plotted. […]

LRP6 [5] = molecular target: T1, LRP6; assay: ^125I-RAP binding to LRP6-transduced HT1080 cells and control cells; set-up: plasmid pCS-Myc-hLRP6 containing the full-length human LRP6 cDNA; HA; expressed in transfected cells; host or cells: human HT1080 cells, stably transduced (pLNCX2 retroviral vector)
Protocol: as §1
Receptor-associated protein (RAP) binds with high affinity to LRP, megalin, VLDLR and apoER2, and with a lower affinity to the LDLR (Bu, G., Int. Rev. Cytol. 209, 79-116. 2001). To determine whether RAP and Mesd bind to identical, overlapping, or different sites on the receptors, binding and competition analysis of these two chaperones with HT1080 cells stably expressing LRP6 was performed.
In FIG. 8A, binding of ^125I-RAP (5 nM) to LRP6-transduced HT1080 cells and the control cells was carried out for 4 hours at 4° C. in the absence (total) or presence of 500 nM RAP, or 500 nM Mesd. In FIG. 8B, binding of ^125I-Mesd (5 nM) to LRP6-transduced HT1080 cells was carried out for 2 hours at 4° C. in the absence (total) or presence of various concentrations of RAP or 500 nM Mesd. (C) LRP6-mediated ^125I-Mesd (5 nM) degradation was carried out for 4 hours at 37° C. in the absence or presence of 500 nM Mesd or 500 nM RAP. Values are the means of triple determinations with the s.d. indicated by error bars.

[6] = molecular target: T2, LRP6 on LRP6-transduced HT1080 cells (HA-tagged) (UniProt O75581 20-1613, limits assumed); assay: competition against 125I-DKK1 for LRP6 (FIG. 10D)
T2 construct: whole, on cells; also called mature LRP6; cell surface LRP6
T2 sequence (O75581 20-1613 limits assumed): as the sequence (O75581 20-1613) above

[7] = molecular target: T3, human Myc-tagged LRP5 on transiently transfected HEK293 cells (human, UniProt O75197 32-1615); assay: competition against 125I-Mesd for LRP5 (FIG. 10A)
T3 construct: whole, on cells; also called mature LRP5; pcDNA3.1C-Myc-hLRP5
T3 sequence (O75197 32-1615): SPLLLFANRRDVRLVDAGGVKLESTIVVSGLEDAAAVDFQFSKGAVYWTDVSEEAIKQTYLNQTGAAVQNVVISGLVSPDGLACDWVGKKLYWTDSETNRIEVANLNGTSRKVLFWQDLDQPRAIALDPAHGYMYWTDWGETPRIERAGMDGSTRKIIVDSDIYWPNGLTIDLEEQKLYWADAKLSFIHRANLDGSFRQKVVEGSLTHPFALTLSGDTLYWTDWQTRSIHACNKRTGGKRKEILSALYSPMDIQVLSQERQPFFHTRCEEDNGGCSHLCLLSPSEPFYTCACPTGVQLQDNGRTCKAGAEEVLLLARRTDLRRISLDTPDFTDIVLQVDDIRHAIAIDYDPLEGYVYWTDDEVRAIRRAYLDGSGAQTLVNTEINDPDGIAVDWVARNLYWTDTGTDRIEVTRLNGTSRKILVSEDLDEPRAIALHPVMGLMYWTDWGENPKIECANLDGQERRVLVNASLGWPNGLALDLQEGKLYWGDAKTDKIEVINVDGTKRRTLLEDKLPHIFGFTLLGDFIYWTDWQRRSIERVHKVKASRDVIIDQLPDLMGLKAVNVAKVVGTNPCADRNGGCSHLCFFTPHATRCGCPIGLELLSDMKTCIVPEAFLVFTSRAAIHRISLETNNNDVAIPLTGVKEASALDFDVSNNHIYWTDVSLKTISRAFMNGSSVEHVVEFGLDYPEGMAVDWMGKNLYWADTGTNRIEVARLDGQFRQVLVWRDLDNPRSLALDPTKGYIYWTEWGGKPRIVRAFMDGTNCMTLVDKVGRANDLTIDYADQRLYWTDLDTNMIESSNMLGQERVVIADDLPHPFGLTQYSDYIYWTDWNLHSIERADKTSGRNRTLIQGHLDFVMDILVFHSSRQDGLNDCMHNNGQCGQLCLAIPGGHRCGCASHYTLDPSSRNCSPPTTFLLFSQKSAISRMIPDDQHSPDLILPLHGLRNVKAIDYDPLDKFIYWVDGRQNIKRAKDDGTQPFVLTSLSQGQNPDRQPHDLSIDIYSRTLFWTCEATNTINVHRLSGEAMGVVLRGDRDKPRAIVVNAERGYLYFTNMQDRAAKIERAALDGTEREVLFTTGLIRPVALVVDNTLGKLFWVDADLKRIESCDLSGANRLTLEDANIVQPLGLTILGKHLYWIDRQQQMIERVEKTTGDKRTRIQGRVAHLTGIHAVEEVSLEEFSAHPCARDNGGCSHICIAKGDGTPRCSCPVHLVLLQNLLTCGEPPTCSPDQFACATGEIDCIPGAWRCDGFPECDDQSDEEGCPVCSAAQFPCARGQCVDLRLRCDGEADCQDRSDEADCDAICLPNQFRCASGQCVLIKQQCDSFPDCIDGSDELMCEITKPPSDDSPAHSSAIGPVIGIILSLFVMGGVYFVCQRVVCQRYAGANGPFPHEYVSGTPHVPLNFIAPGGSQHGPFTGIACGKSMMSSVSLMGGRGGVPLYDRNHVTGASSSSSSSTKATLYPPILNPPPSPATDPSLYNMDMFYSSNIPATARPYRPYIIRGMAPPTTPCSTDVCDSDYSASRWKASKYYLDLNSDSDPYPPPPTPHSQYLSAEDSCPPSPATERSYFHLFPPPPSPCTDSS

Binding of Mesd truncation mutants to cell surface LRP6 (LRP6 [3]): no effect on LRP6 binding
B1: MESD(12-195): truncated Mesd mutant lacking the N-terminal region (N-terminal 11 amino acids of mouse Mesd) (protein)
chain: RKKKDIRDYNDADMARLLEQWEKDDDIEEGDLPEHKRPSAPIDFSKLDPGKPESILKMTKKGKTLMMFVTVSGNPTEKETEEITSLWQGSLFNANYDVQRFIVGSDRAIFMLRDGSYAWEIKDFLVSQDRCAEVTLEGQMYPGKGGGSKEKNKTKPEKAKKKEGDRKPRASKEDNRAGSRREDL
modifications: left off: small tags and cut ends

fold reduction of ^125I-DKK1 binding [6]: > 2 fold | fold reduction of ^125I-Mesd binding [7]: ~10 fold
B2: Mesd oligopeptide KGGGSKEKNKTKPEKAKKKEGDPKPRASKEDNRAGSR (SEQ ID NO: 20) (peptide)
peptide: KGGGSKEKNKTKPEKAKKKEGDPKPRASKEDNRAGSR
notes: also called the oligopeptide

Binding of Mesd truncation mutants to cell surface LRP6 (LRP6 [3]): completely abolished LRP6 binding
B3: Mesd(12-155): truncated Mesd mutant lacking both the N-terminal and C-terminal regions (protein)
chain: RKKKDIRDYNDADMARLLEQWEKDDDIEEGDLPEHKRPSAPIDFSKLDPGKPESILKMTKKGKTLMMFVTVSGNPTEKETEEITSLWQGSLFNANYDVQRFIVGSDRAIFMLRDGSYAWEIKDFLVSQDRCAEVTLEGQMYPGK
modifications: left off: small tags and cut ends
notes: truncated Mesd mutant lacking both the N-terminal and C-terminal regions

Second part, the molecule before the results:

Molecule: DKK1: human DKK1 protein, LRP6-specific ligand and antagonist; recombinant (R&D Systems) or Myc-tagged in conditioned medium
Effect of Dkk1 on Wnt signaling (luciferase activity) (Wnt signaling): inhibits Wnt signaling | ^125I-DKK1 binding in LRP6-expressing HT1080 cells versus control cells (LRP6 [1]): significantly higher levels | ^125I-DKK1 degradation in LRP6-expressing HT1080 cells versus control cells (LRP6 [2]): significantly higher levels

Molecule: KGGGSKEKNKTKPEKAKKKEGDRKPRASKEDNRAGSR [SEQ ID NO: 21]
Restoring of Wnt signaling inhibited by Dkk1 (luciferase activity) (Wnt signaling): at least partially restoring Wnt signaling

Molecule: QMYPGKGGGSKEKNKTKPEKAKKKEGDPKPRASKEDNRAGSRREDL [SEQ ID NO: 22]
Restoring of Wnt signaling inhibited by Dkk1 (luciferase activity) (Wnt signaling): at least partially restoring Wnt signaling | Binding of Mesd truncation mutants to cell surface LRP6 (LRP6 [3]): necessary and sufficient for LRP6 binding

Molecule: RAP: human recombinant 39 kDa receptor-associated protein, expressed in a GST expression vector [reference compound]
Inhibition of ^125I-Mesd binding to cell surface LRP6 (LRP6 [3]; 500 nM unlabeled competitor, ^125I-Mesd 5 nM, 2 hours at 4° C.): ~60% | Inhibition of ^125I-Mesd degradation (LRP6 [4]): only partially | Effect of excess unlabeled competitor on increased DKK1 binding (LRP6 [1]; 500 nM competitor): not | Effect of excess unlabeled competitor on ^125I-RAP binding to control cells (LRP6 [5]; 500 nM competitor, control cells expressing vector alone, 4° C.): completely eliminated this binding | Increase of RAP binding in LRP6 expressing HT1080 cells compared to control cells (LRP6 [5]; ^125I-RAP 5 nM, 4 hours at 4° C.): ~20%
